Laboratory results published in the DeepSol protein solubility set.

Assay: soluble on expression in E. coli; label from the status in PepcDB or PDB records

Sequence | soluble on expression in E. coli
AHHHHHHGSRVLVTTWGNPFQWEPITYEYRGIKVKSRNTLPILVKTLEPERILILVADTMANYYDSGKNKPEIEEKSFSSYSEVVEDTKERILWHIKEEVIEELREEDPELAKKIENMLKDERITIEVLPGVGVFGNITVEGEMLDFYYYATYKLAEWLPVQNNLEVYLDLTHGINFMPTFTYRALRNLLGLLAYLYNVKFEIVNSEPYPLGVSQEIREDTILHIREIGEGVVRPRPQYSPVEGKLYWNAFISSVANGFPLVFASFYPNIRDVEDYLNKKLEEFLVGIEVGEREDGKPYVKREKALDRSFKNASKLYYALRVFNTKFQNYPKKEVPIEEIMEISKIFESLPRIGIILERQVEWLRNLVYGRLWYENGEQKIKKGLLEIIKDKKDKRKEAEALKKGKTISLAEAAKLTRIFSPSGERIETIESPNVVRNFIAHSGFEYNIVYVKYDRLSDRLYFFYKDKEKAANLAYEALLYRGEKE | soluble
MKPQWQQYIQIINQVVKPALGCTEPIAAAYAAAVARTLLNDDPDSIAVQVSDNLYKNSMGVYVPGTGKIGLAIAAAAGALAGNADAGLEVLASVTPEQVAQAQALIDAAKVKVERTETDEFIYCCVTLTSGEQEAMVKICGGHTLIAEKRLNGELVFTADNAQAKATGSICDGVDINIESIYRFAEEVPFEEIQFILKASELNSKLSDEGMSKPYGLEVGRTMKNGIAAGIIGEDLLNKIVMLTAAASDARMGGANLPAMSNLGSGNQGIAATIPVVITAQCYKVSEEKLARALIMSHLGAIYIKSHYPPLSAFCGNTVTSAAASMAMVYLAGGSFEQSCFAIQNVISDSSGMVCDGAKASCAMKVSTSSSAAVRSFLMALSSQNVSGQGIIANHVEKTIKNIGKMVLNGMSSTDVTIINIMSE | not soluble
MGSDKIHHHHHHMRADLTPFLNDRLDWNLLRTYLVIMQERSVSRAAARLHVTQPAVSQALRRLEDTLERKLIERRGAHFAPTPAGEAVYRIASDIYGGVSRLETELDDSTADLTGSIRLLTVSRIESPVYDAFLADFHRAYPRIDLQIEVMRSSDILSSLLQKTATAGLGLCRTPHDKLEMRCFLRQRYAIYCGRHHRLFGQTQLRMEDLLAENFVSFTSDQIGDSLSPLTVFRDQKGFTGRIVASSPSLEEVRRLIFAGYGIGCLPEHIVRDDIAQQRLWRLPPDDGLVDVDVFLLWHRDRKMNAAEHAFLDAMERCMQQHSLAERLGM | not soluble
MEQDDPSGEWPLIAALPVRQDVPVDALLADVAAQLAAEGLRTAGFLQRDGVRLEDLTSGALYPITQDLGPGSSGCRLDPAGLALAAAAGLAALERGADLLVIPRFGKAEIEGEGMRGVIGRACELGVPTLVGVRQSAEPAWETFAGGLAEWIAPERQAVAGWCRTACAPVRCRTLEHHHHHH | not soluble
MHSYHNPGVPTALSIFEPLQDGSTISVHGHVRHGHHKNFAVELLSGPNVVLHVNFRFHHEHVVVMNSQFSGMWGPEIRHKNPLHHSEHFHLSIKVHAGYYHISVNGHHLADYPHRYPYQSVQAIGLKGDVHVDKVHFEGFHFQRRWDGHVDHGHSGYNAYGTETYVAPVFVQPNFMPYGAPPPPVQNFNPYR | not soluble
MGSDKIHHHHHHMSVVDFSKLYPDNRQEGETVLRQAQLVMLRMLKIIDYICRKHDISYWMCSGTLLGAVRHKGFIPWDDDLDICMIREDYERFVEIAVNEFPEDMMLQTRETDPHYHYLPLPCKVRDKKSFILSPGYEDEECEKGLFIDIFPMDRYHKQKLPFMFEKMVKVYNTFICKSLDAIYFKDESIDKKILAFFHPVFHKLVLQYMKFAKKLIDKNRGLGTDCRLGHGFDTLWKRYLRFDDIFPVVEIDFEDSKFFAPHRPDVYLTTLYGPNYMTPPPEKQRLAAQHAHEIKPII | not soluble
ASFIEQQVGGSLNEASLAHHIEQVLATNGNLFIGNSLFVRLVDALCKLPEGYPVYTNRGASGIDGLIATMAGIAKASGQPTVGVVGDISALHDLNSISLLSKINHPSILFVINNSGGAIFDMLPVEARVKEQFYRLSHNYEFSQVAAMFGIEYIRPFTWADLKAKLKLAYGRKSATIVEIKVNDQDG | not soluble
MIREKALEFHKNNFPGNGKIEVIPKVSLESREELTLAYTPGVAEPCKEIARDPGKVYEYTSKGNLVAVVSDGSRILGLGNIGPLAGLPVMEGKALLFKRFGGVDAFPIMIKEQEPNKFIDIVKAIAPTFGGINLEDIASPKCFYILERLREELDIPVFHDDQQGTAAVVLAGLLNALKVVGKKISEITLALFGAGAAGFATLRILTEAGVKPENVRVVELVNGKPRILTSDLDLEKLFPYRGWLLKKTNGENIEGGPQEALKDADVLISFTRPGPGVIKPQWIEKMNEDAIVFPLANPVPEILPEEAKKAGARIVATGRSDYPNQINNLLGFPGIFRGALDVRARTITDSMIIAAAKAIASIVEEPSEENIIPSPLNPIVYAREARAVAEEAMKEGVARTKVKGEWVEEHTIRLIEFYENVIAPINKKRREYSKAITRA | soluble
MSLKTFTLPASVLFCFLLLIQGLGAAPPGRPDVFPPPLSSEHNGQVAEDAVSRPKDDGVPEVRAARNPEPQDQGELFQGVDPRALASVLLQALDRPASPPSVPGGSQQGTPEEAAEALMTESVRSQTHSLPAPEIQAPAVAPPRPQTQDRDPEEDDRSEEMEALASLLQELRDFSPSNAKRQQETAAAETETRTHTLTRVNLESPGPERVWRASWGEFQARVPERAPLPPPVPSQFQARMSESAPLPETHQFGEGVSSPKTHLGETLTPLSKAYQSLGGPFPKVRRLEGSFLGGSEAGERLLQQGLAQVEAGRRQAEATRQAAAQEERLADLASDLLLQYLLQGGARQRDLGGRELQETQQERENEREEEAEQERRGGGEDDVGEEDEEAAEAEAEAEEAERARQNALLFAEEEDGEAGAEDKRSQEEAPGHRRKDAEGAEEGGEEDDDDEEMDPQTIDSLIELSTKLHLPADDVVSIIEEVEEKRKRKKNAPPEPVPPPRAAPAPTHVRSPQPPPPAPARDELPDWNEVLPPWDREEDEVFPPGPYHPFPNYIRPRTLQPPASSRRRHFHHALPPARHHPDLEAQARRAQEEADAEERRLQEQEEMENYIEHVLLHRPEGHHHHHH | soluble
MSLHDVRVYHVQQPMRVGFGHPAATRTTSESVVLELDISGCVGLGECAPRSYVTGETCVTVCDALRSLPLARIIDELLSESPNDVLYRIKRLGIEAAFDFTAANNVVCIVELAILDWIGKRTRVSLDAMLRNGASLAESSAPIKISQVLDQNLTVDDFLRERGPFHFVKIKAHRDRAKDLETVTEIRRAIGDDTPIVIDANMSWSLIEAVEHVRKLREAGLTMVEEPFSKRSWTELHELRVQTGISIMLDESVSTLDDLRRAIGSDSCDAVNVRVSKCGGVLRSIEMIELAKSFGIQFQIGVQVAECGPLIQAGRLLASLHRDAIAVEGGQADRFFDSMIVSPDLSFDRARSTVPPPAGFGLGLSTSTEISKYLAFGYSRSADEWTATSHYTEAEGHHHHHH | soluble
MLDDTGERIIPKNMKPMNGMLLEHLARYYFSTPYASGRVLDIACGTGYGSVMVAKTRKTEVDQVLGVDFDADVIHYAKQNYYHPKVSFLVGDAMDPYLRNQIGTFDTILSFETIEHVKDDRLFIERMRQLLKKDGTLVLSTPFGQGRGKPSDEPFHYHQLTEEEFRSLFDSFSEKEVFYQRGVTIEPKRTNVHYAFGVAVCKKLEHHHHHH | soluble
MALLTKVTWNNIGMHQPQTNWYKGVWFPYSTPKYSFLLWLTIQNRLSTGDHIKAWNSGQQVTCTLCGNAEETRNLLFFSCHYTSEVWRTLTQRLLSNDYSRDWNRLLPLLCNTNMPTDLLFLFRYVFQASVYHIWRERNARRHGEISSPPNRLIKFIDKNVRNRINSIRDTGDHNYNACLQLWFSTRPLSSTHSL | soluble
MNNTPKLKLGIVAVSRDCFPMELSENRRKAVVDAYNGEIFECLTTVENEKDMRKALKEVKSAGVNALVVYLGNFGPETPETLIAKEFDGPVMFAAAAEERGDNLVNGRGDAYCGMLNASYNLALRNINAYIPEYPVGTASDVANMINEFVPVATALIGLKNLKIISFGPRPQDFLACNAPIKQLYNLGVEIEENSELDLFASFNEHENDSRIPDVVKDMEEELGEGNKMPGILPKLAQYELTLLDWAEEHKGSREYVVFANKCWPAFQTQFGCVPCYVNSRLTARGIPVSCEVDIYGALSEYIGTCVSQDVVTLLDINNTVPKDMYESEIKSKFNYTLKDTFMGFHCGNTAACKLTSGTMKNQMIMARALEPNQEPNITRGTLEGDIVPGEITFFRLQSNADSELTAYVAEGEVLPVKTRSFGSIGVFAIPQMGRFYRHVLIENRFPHHGAVAFGHFGKAIYNLFRYLGVKEVGFNRPKEMLYKTENPFELEHHHHHH | soluble
MSLLEYLPPGVDTDRFRPDPAARAELRKRYRLGERPTVVCLSRLVPRKGQDTLVTALPSIRRRVDGAALVIVGGGPYLETLRKLAHDCGVADHVTFTGGVATDELPAHHALADVFAMPCRTRGAGMDVEGLGIVFLEASAAGVPVIAGNSGGAPETVQHNKTGLVVDGRSVDRVADAVAELLIDRDRAVAMGAAGREWVTAQWRWDTLAAKLAEGHHHHHH | not soluble
MGKMAAAVGSVATLATEPGEDAFRKLFRFYRQSRPGTADLEGVIDFSAAHAARGKGPGAQKVIKSQLNVSSVSEQNAYRAGLQPVSKWQAYGLKGYPGFIFIPNPFLPGYQWHWVKQCLKLYSQKPNVCNLDKHMSKEETQDLWEQSKEFLRYKEATKRRPRSLLEKLRWVTVGYHYNWDSKKYSADHYTPFPSDLGFLSEQVAAACGFEDFRAEAGILNYYRLDSTLGIHVDRSELDHSKPLLSFSFGQSAIFLLGGLQRDEAPTAMFMHSGDIMIMSGFSRLLNHAVPRVLPNPEGEGLPHCLEAPLPAVLPRDSMVEPCSMEDWQVCASYLKTARVNMTVRQVLATDQNFPLEPIEDEKRDISTEGFCHLDDQNSEVKRARINPHS | not soluble
MGSDKIHHHHHHMSSNESQTLATISPTALSQLARYIKQWGQELGFAQVGITDTDLSEEEAKLQDWLDKGYHGEMGYMANHGMMRARPHELHQGTKRVVSLRMDYLPPSAGFATNLIDPTLGYISRYAGGRDYHKLMRQRIKKLGDKIEAYCQEQGFGATDSRPFVDSAPVMERPLAEKAGIGWTGKHSLILNHNAGSWFFLGELFINLPLPLDIPISDGCNTCVACIKSCPTGAIVEPYVVDGRRCISYLTIELQGAIPEEFRPLMGNRIYGCDDCQLVCPINAQAPLTQEHDFHIRQQILQPELLTLFNWSEKTFLSLTEGSAIRRIGHKRWLRNIAIALGNAPANPNIIEALSARKASDEVDDMVLEHINWALAQQQAKVQQQTKVQQQAKVQQAVQFEPARETPAQRKTARVVRSVEKGLPRDA | not soluble
MAGDPMKKRFSNKVLIIGYGSVSQCTLPLLLDKLDIPLENITLIDFEDKSKALKKYTNQGLTFVREKITPENLDQVLSQNMENEGMIIDLSWNIDANEIVKWCHDHDVLYVNTSVEVWDPAEKFLTQSLLEKSLYLRQMRLQELSRDWKDAPTAVVDHGANPGLITHFVKQGLLDIAARTCEDKKVSPEDEQEIALLAKNRDFARLARKLGIRVIHCSERDTQIASRPKEVNEFVGTWSIEGLREEGTAPVEIAWGTHESKLPPLAHIPPYGPKNVILLPQMGVNAWVRSWIPDEEIVGMAIRHGESYGLSKLLTVWEGEKAVYRPTVHYAYMPSHDTLSSLCELRGRNYELQPRLRIMTNEIVSGEDIMGALLMGHSYNSWWTGSALSIEEARSLAPGQNATTLQVAAGIVAAILWMLENPREGVKTPEDLPHDFVLDIARPYLGKFISTPSDWTPLKNRKIFFKESPAVKHDPDPWQFENFIFVGLEHHHHHH | soluble
MGSDKIHHHHHHMTTLDALRVFVEVVRAGSFTAAARRLSISKSLASKRVAALEDELSVNLLNRSTRSLRLTEAGQIYYEHGLRVIEELQSAEAQVQSVTSQPRGQLKVSAQVSFGFMYLAAPTTAFMRRYPDVSVEILLEDQRFEPIDDSVDLAIRMGPLPPSSLVSRPLCKVVYGLYAAPDYLARAGRPLHPRDIADYDTVFYGNYDLGAHWRFSLNGQPLDIEPNSRLVINNLLGVVEAAKSGFGLAYLPTFAARAAVEEGQLIPLLQPYWNEHGSMLVLFRSRKYLPDKTRAYLDFITDWFREHLAL | not soluble
